Laboratory results from article PMC5910400 (2018).
Where a chain is given by its changes, count along the chain named.

Tests used:
Assay in all cases: BLI
CCL4L1 = target: T1, CCL4L1 (Homo sapiens)
T1 chain: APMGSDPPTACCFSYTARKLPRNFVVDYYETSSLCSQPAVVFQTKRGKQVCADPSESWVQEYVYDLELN

CCL7 = CCL7 (human, UniProt P80098 24-99)
CCL21 = target: T2, CCL21 (human, UniProt O00585 24-134)
T2 chain: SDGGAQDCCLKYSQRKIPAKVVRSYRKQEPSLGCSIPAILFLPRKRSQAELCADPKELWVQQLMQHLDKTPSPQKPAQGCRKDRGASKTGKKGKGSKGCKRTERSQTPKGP

CCL1 = target: T3, CCL1 (human, UniProt P22362 24-96)
T3 chain: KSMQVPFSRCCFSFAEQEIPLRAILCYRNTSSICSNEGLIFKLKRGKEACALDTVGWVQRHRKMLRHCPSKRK

CCL23 = target: T4, CCL23 (human, UniProt P55773 22-120)
T4 chain: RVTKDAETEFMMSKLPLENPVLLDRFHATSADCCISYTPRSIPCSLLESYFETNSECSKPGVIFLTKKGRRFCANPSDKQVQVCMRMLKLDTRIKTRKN

CCL8 = target: T5, CCL8 (Homo sapiens)
T5 chain: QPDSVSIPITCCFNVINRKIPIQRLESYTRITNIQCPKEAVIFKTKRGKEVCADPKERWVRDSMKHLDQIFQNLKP

CCL4 = target: T6, CCL4 (Homo sapiens)
T6 chain: T1 chain with G47S

CCL16 = target: T7, CCL16 (Homo sapiens)
T7 chain: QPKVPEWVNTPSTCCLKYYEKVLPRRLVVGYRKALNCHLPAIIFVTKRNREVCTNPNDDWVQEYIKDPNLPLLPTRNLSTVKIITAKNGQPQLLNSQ

CCL19 = target: T8, CCL19 (Homo sapiens)
T8 chain: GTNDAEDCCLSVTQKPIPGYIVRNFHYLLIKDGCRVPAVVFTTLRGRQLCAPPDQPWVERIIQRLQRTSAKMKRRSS

CCL18 = target: T9, CCL18 (Homo sapiens)
T9 chain: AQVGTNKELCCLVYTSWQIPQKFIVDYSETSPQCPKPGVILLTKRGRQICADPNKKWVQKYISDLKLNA

CCL5 = target: T10, CCL5 (human, UniProt P13501 24-91)
T10 chain: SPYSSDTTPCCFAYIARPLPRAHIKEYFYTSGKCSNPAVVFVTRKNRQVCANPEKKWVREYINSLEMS

CCL17 = target: T11, CCL17 (Homo sapiens)
T11 chain: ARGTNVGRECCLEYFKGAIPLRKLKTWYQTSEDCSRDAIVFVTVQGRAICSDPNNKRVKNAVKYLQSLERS

CCL22 = target: T12, CCL22 (human, UniProt O00626 25-93)
T12 chain: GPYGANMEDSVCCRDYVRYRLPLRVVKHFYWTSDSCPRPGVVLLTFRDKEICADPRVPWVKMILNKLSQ

CCL13 = CCL13 (human, UniProt Q99616 24-98)
Sequence of CCL13 (Q99616 24-98): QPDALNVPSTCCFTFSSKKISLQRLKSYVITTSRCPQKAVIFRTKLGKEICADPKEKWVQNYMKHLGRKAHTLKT

CCL27 = target: T13, CCL27 (Homo sapiens)
T13 chain: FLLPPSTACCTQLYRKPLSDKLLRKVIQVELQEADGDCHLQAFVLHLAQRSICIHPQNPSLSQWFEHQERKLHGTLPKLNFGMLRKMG

CCL24 = target: T14, CCL24 (Homo sapiens)
T14 chain: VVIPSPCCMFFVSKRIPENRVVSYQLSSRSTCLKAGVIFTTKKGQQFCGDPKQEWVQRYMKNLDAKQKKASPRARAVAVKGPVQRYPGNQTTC

CCL3L1 = target: T15, CCL3L1 (human, UniProt P16619 24-93)
T15 chain: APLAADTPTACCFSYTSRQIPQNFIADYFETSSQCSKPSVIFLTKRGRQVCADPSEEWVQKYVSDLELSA

CCL14 = target: T16, CCL14 (Homo sapiens)
T16 chain: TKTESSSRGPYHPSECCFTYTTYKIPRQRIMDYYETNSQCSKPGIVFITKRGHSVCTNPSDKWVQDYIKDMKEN

CCL3 = target: T17, CCL3 (human, UniProt P10147 24-92)
T17 chain: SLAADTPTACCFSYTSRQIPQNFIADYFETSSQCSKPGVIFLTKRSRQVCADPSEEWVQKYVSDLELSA

CCL15 = target: T18, CCL15 (Homo sapiens)
T18 chain: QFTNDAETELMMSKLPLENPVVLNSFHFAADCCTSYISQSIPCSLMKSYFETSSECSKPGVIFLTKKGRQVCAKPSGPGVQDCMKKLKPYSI

CCL11 = CCL11 (Homo sapiens)
Sequence of CCL11 (Homo sapiens) (chain, as listed by the source): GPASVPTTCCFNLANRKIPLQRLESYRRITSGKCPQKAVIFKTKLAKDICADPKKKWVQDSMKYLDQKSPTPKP

Sequence of CCL7 (P80098 24-99): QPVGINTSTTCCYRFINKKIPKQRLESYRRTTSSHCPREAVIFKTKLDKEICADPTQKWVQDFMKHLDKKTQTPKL

B1: P1243 (evasin from Amblyomma americanum), purified, C-terminal StrepII:8xHis tag (natural protein)
chain: ETGRNHTEDNSTEYYDYEEARCACPARHLNNTNGTVLKLLGCHYFCNGTLCTAPDGYPCYNLTAQQVRTLTTYPNTSCAVGVCMKGTCVKNGTMEQCFKTP
For B1, the Kd (CCL4L1) was 15.7 nM, the Kd (CCL7) was 49.3 nM and the Kd (CCL21) was 26 nM. For the same binder, the Kd (CCL1) was 20 nM, the Kd (CCL23) was 0.772 nM and the Kd (CCL8) was 56.3 nM. For the same binder, the Kd (CCL4) was 12.2 nM, the Kd (CCL16) was 1.3 nM and the Kd (CCL19) was 3.9 nM. The Kd (CCL18) was 0.663 nM, the Kd (CCL5) was 3.79 nM and the Kd (CCL17) was 6.1 nM. For the same binder, the Kd (CCL22) was 13 nM, the Kd (CCL13) was 1.4 nM and the Kd (CCL27) was 24 nM. For the same binder, the Kd (CCL24) was 13 nM, the Kd (CCL3L1) was 8.97 nM and the Kd (CCL14) was 4.33 nM. It also gave a Kd (CCL3) of 35.5 nM, a Kd (CCL15) of 9.78 nM and a Kd (CCL11) of 6.69 nM.
